# Experiments:
# [1] = molecular target: human GPC3 on cells (HepG2 endogenous; CHO-K1 recombinant clones CHOK1-hGPC3.1C3, 2B5, 3E9) (human) (UniProt P51654); assay: FACS on CHOK1-hGPC3.2B5 cells
# [2] = molecular target: human GPC3 (Gln25-His559)-His protein (Acro, Cat. No. GP3-H52H4) (human) (UniProt P51654); assay: ELISA; antibody 1 nM
# [3] = molecular target: monkey GPC3-His protein (Acro, Cat. No. GP3-05225) (monkey) (UniProt A5A6P7); assay: ELISA; antibody 1 nM
# [4] = molecular target: mouse GPC3-His protein (Sino Biological, Cat. No. 50989-M08B) (mouse) (UniProt Q8CFZ4); assay: ELISA; antibody 1 nM
# UniProt Q8CFZ4, sequence (Q8CFZ4 25-558 limits assumed): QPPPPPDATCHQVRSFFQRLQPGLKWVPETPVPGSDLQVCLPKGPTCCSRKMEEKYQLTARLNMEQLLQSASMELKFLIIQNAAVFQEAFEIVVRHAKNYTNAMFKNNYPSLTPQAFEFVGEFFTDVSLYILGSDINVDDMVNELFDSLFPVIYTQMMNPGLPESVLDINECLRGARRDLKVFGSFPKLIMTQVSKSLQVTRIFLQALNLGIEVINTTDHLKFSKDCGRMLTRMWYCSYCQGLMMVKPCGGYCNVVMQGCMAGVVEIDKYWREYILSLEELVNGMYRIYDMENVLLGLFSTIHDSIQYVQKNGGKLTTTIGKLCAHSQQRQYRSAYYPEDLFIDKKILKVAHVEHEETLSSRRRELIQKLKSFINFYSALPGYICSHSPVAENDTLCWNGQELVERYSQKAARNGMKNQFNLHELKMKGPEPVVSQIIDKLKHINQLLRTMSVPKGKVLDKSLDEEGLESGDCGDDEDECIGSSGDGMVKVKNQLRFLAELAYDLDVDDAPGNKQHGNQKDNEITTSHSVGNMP
# [5] = molecular target: human GPC3 on cells (HepG2 endogenous; CHO-K1 recombinant clones CHOK1-hGPC3.1C3, 2B5, 3E9) (human) (UniProt P51654); assay: FACS on CHOK1-hGPC3.1C3 cells
# [6] = molecular target: human GPC3 (Gln25-His559)-His protein (Acro, Cat. No. GP3-H52H4) (human) (UniProt P51654); assay: ELISA; antibody 0.01 nM
# [7] = molecular target: human GPC3 on cells (HepG2 endogenous; CHO-K1 recombinant clones CHOK1-hGPC3.1C3, 2B5, 3E9) (human) (UniProt P51654); assay: FACS on HepG2 cells
# [8] = molecular target: human GPC3 (Gln25-His559)-His protein (Acro, Cat. No. GP3-H52H4) (human) (UniProt P51654); assay: ELISA; antibody 0.0001 nM
# [9] = molecular target: monkey GPC3-His protein (Acro, Cat. No. GP3-05225) (monkey) (UniProt A5A6P7); assay: ELISA; antibody 0.0001 nM
# [10] = molecular target: mouse GPC3-His protein (Sino Biological, Cat. No. 50989-M08B) (mouse) (UniProt Q8CFZ4); assay: ELISA; antibody 0.0001 nM
# [11] = molecular target: human GPC3 on cells (HepG2 endogenous; CHO-K1 recombinant clones CHOK1-hGPC3.1C3, 2B5, 3E9) (human) (UniProt P51654); assay: FACS on CHOK1-hGPC3.3E9 cells
# [12] = molecular target: human GPC3 (Gln25-His559)-His protein (Acro, Cat. No. GP3-H52H4) (human) (UniProt P51654); assay: ELISA; antibody 0.0001 nM; remark: listed apart in the source
# [13] = molecular target: human GPC3 on cells (HepG2 endogenous; CHO-K1 recombinant clones CHOK1-hGPC3.1C3, 2B5, 3E9) (human) (UniProt P51654); assay: FACS on CHO-K1-human GPC3 cells
# [14] = molecular target: monkey GPC3 on HEK293T cells (monkey); assay: FACS on HEK293T-monkey GPC3 cells
# monkey GPC3 on HEK293T cells (monkey), sequence (chain, as listed by the source limits assumed): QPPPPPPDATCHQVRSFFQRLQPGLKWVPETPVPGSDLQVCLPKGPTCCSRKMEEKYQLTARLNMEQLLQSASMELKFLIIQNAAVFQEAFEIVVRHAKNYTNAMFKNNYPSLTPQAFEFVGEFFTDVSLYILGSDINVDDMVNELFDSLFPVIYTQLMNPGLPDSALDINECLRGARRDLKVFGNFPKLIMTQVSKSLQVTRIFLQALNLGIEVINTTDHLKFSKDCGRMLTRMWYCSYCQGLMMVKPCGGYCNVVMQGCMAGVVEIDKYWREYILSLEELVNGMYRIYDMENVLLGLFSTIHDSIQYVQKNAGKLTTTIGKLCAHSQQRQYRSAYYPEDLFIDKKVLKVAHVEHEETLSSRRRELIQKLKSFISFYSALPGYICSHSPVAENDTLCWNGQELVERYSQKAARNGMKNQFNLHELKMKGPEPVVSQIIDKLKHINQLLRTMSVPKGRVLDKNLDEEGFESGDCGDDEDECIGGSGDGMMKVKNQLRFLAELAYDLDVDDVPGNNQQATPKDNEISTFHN
# [15] = molecular target: human GPC3 (Gln25-His559)-His protein (Acro, Cat. No. GP3-H52H4) (human) (UniProt P51654); assay: ELISA; antibody 0.001 nM
# [16] = molecular target: monkey GPC3-His protein (Acro, Cat. No. GP3-05225) (monkey) (UniProt A5A6P7); assay: ELISA; antibody 0.001 nM
# [17] = molecular target: mouse GPC3-His protein (Sino Biological, Cat. No. 50989-M08B) (mouse) (UniProt Q8CFZ4); assay: ELISA; antibody 0.001 nM
# [18] = molecular target: human GPC3 (Gln25-His559)-His protein (Acro, Cat. No. GP3-H52H4) (human) (UniProt P51654); assay: ELISA; antibody 100 nM
# [19] = molecular target: monkey GPC3-His protein (Acro, Cat. No. GP3-05225) (monkey) (UniProt A5A6P7); assay: ELISA; antibody 100 nM
# [20] = molecular target: mouse GPC3-His protein (Sino Biological, Cat. No. 50989-M08B) (mouse) (UniProt Q8CFZ4); assay: ELISA; antibody 100 nM
# [21] = molecular target: human GPC3 on cells (HepG2 endogenous; CHO-K1 recombinant clones CHOK1-hGPC3.1C3, 2B5, 3E9) (human) (UniProt P51654); assay: FACS on HepG2 cells; remark: listed apart in the source
# [22] = molecular target: human GPC3 (Gln25-His559)-His protein (Acro, Cat. No. GP3-H52H4) (human) (UniProt P51654); assay: ELISA; antibody 0.01 nM; remark: listed apart in the source
# [23] = molecular target: mouse GPC3-His protein (Sino Biological, Cat. No. 50989-M08B) (mouse) (UniProt Q8CFZ4); assay: ELISA; antibody 0.01 nM
# [24] = molecular target: human GPC3 (Gln25-His559)-His protein (Acro, Cat. No. GP3-H52H4) (human) (UniProt P51654); assay: ELISA; antibody 1 nM; remark: listed apart in the source
# [25] = molecular target: human GPC3 (Gln25-His559)-His protein (Acro, Cat. No. GP3-H52H4) (human) (UniProt P51654); assay: ELISA; antibody 10 nM
# [26] = molecular target: human GPC3 (Gln25-His559)-His protein (Acro, Cat. No. GP3-H52H4) (human) (UniProt P51654); assay: ELISA; antibody 10 nM; remark: listed apart in the source
# [27] = molecular target: monkey GPC3-His protein (Acro, Cat. No. GP3-05225) (monkey) (UniProt A5A6P7); assay: ELISA; antibody 10 nM
# [28] = molecular target: mouse GPC3-His protein (Sino Biological, Cat. No. 50989-M08B) (mouse) (UniProt Q8CFZ4); assay: ELISA; antibody 10 nM
# [29] = molecular target: human GPC3 (Gln25-His559)-His protein (Acro, Cat. No. GP3-H52H4) (human) (UniProt P51654); assay: ELISA; antibody 0.1 nM
# [30] = molecular target: monkey GPC3-His protein (Acro, Cat. No. GP3-05225) (monkey) (UniProt A5A6P7); assay: ELISA; antibody 0.1 nM
# [31] = molecular target: human GPC3 (Gln25-His559)-His protein (Acro, Cat. No. GP3-H52H4) (human) (UniProt P51654); assay: ELISA; antibody 100 nM; remark: listed apart in the source
# [32] = molecular target: human GPC3 (Gln25-His559)-His protein (Acro, Cat. No. GP3-H52H4) (human) (UniProt P51654); assay: ELISA; antibody 0.1 nM; remark: listed apart in the source
# [33] = molecular target: human GPC3 (Gln25-His559)-His protein (Acro, Cat. No. GP3-H52H4) (human) (UniProt P51654); assay: ELISA; antibody 0.001 nM; remark: listed apart in the source
# UniProt A5A6P7, sequence (A5A6P7 other isoform, or with tags, fused parts or gaps limits assumed): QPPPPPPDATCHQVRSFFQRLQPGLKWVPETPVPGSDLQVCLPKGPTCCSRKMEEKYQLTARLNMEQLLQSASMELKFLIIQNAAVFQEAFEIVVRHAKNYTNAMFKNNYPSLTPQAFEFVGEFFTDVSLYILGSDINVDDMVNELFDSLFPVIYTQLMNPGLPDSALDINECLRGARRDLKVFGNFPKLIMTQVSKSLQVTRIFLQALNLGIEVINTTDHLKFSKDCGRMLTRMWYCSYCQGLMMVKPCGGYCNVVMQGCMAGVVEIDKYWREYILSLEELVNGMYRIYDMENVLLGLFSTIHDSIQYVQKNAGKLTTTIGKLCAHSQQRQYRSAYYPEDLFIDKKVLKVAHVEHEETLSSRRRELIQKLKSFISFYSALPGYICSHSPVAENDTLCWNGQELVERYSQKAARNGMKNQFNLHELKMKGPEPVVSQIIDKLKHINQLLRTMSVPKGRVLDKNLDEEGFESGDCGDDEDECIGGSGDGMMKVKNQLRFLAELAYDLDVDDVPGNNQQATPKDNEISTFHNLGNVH
substance,measurement,setting,value
human IgG1 (IgG subtype control) (antibody),Mean fluorescence density of cells,[1],19.3
same,OD450,[2],0.048
same,OD450,[3],0.044
same,OD450,[4],0.05
same,Mean fluorescence density of cells,[5],19.3
same,OD450,[6],0.048
same,Max MFI,[7],155
same,OD450,[8],0.06
same,OD450,[9],0.048
same,OD450,[10],0.049
same,Mean fluorescence density of cells,[11],19.3
same,OD450,[12],0.047
same,Max MFI,[13],88
same,Max MFI,[14],107
same,OD450,[15],0.06
same,OD450,[16],0.044
same,OD450,[17],0.051
same,OD450,[18],0.072
same,OD450,[19],0.056
same,OD450,[20],0.105
same,Max MFI,[21],124
same,OD450,[22],0.06
same,OD450,[23],0.052
same,OD450,[24],0.06
same,OD450,[25],0.1
same,OD450,[26],0.05
same,OD450,[27],0.047
same,OD450,[28],0.055
same,OD450,[29],0.06
same,OD450,[30],0.045
same,OD450,[31],0.44
same,OD450,[32],0.05
same,OD450,[33],0.048

# — patent publication US20240052055A1
